Reference: US20090068224A1, “METHOD TO IDENTIFY POLYPEPTIDE TOLL-LIKE RECEPTOR (TLR) LIGANDS” (VAXINNATE CORPORATION, priority 2005, published 2009)

molecular target: human TLR2 (293.hTLR2 cells) (Homo sapiens, UniProt O60603); assay: Biopanning of pentameric random peptide phage display library, sequencing of enriched clones; type: binding; conditions: percentage of all clones sequenced (n = 109) having given peptide sequence; after 4 rounds of biopanning, TLRlo parental HEK293, TLRhi 293.hTLR2; peptides with identity to known microbial proteins
Procedure: (§1) Screening of phage display libraries by biopanning: Phage display libraries are screened for peptide TLR ligands according to the following procedure. The phage display library is incubated on an in vitro cultured monolayer of cells that express minimal amounts of the TLR of interest (TLR^lo) in order to reduce non-specific binding, and then transferred to an in vitro suspension culture of cells expressing the relevant TLR (TLR^hi) to capture phage with binding specificity for the target TLR. After several washes with PBS to remove phage remaining unbound to the TLR^hi cells, TLR^hi cell-bound phages are harvested by centrifugation. The TLR^hi cells with bound phage are incubated with E. coli (strain BLT5615) in order to amplify the phage. This process is repeated three or more times to yield a phage population enriched for high affinity binding to the target TLR.
In each round of biopanning, the harvested phage that are bound to TLR^hi cells can be titred prior to amplification, amplified, and then titred again prior to initiation of the next cycle of biopanning. In this way, it is possible to determine the percent (%) of input phage in each cycle that are ultimately harvested from the TLR^hi cells. This calculation provides a round-by-round measure of enrichment within the phage display library for phage that display TLR-binding peptides.
Construction of random peptide libraries (RPL): A pentameric random peptide phage display library of T7SELECT phage was constructed essentially as described in Example 2. A pair of phosphorylated oligonucleotides with the sequence NNBNNBNNBNNBNNB (where N=A/G/C/T, B=G/C/T) flanked at the 5′ and 3′ ends by EcoRI and HindIII sites, respectively, was synthesized. Equimolar amounts of the oligonucleotides were annealed by heating for 5 min at 90° C. with gradual cooling to 25° C. The double stranded DNA was ligated to T7Select 10-3 bacteriophage vector (Novagen) that had been previously digested with EcoRI and HindIII. The ligation reactions were packaged in vitro and titred using the host E. coli strain […] that was grown in M9TB (Novagen), generating 2.5×10^7 clones, representing about 75% coverage of the library. The recombinant phage were subjected to several rounds of amplification to generate a total library of 1.35×10^12 phage, ensuring representation in excess of 5×10^4 fold for each clone in the library.
(§2) Sequencing of phage inserts: Individual phage clones from the enriched pool are isolated via plaque formation in E. coli. The DNA inserts of individual phage are amplified in PCR using the commercially available primers T7SelectUP (5′-GGAGCTGTCGTATTCCAGTC-3′; SEQ ID NO: 37; Novagen, catalog #70005) and T7SelectDOWN (5′-AACCCCTCAAGACCCGTTTA-3′; SEQ ID NO: 38; Novagen, catalog #70006). The PCR product DNA is purified using the QIAquick 96 PCR Purification Kit (Qiagen) and subjected to DNA sequencing using T7SelectUP and T7SelectDOWN primers.
We constructed a pentameric random peptide phage display library in T7 phage. This phage library was then screened by biopanning as described in Example 3. For this screen, the TLR^lo cells were parental HEK293 (TLR2^−) cells, and the TLR^hi cells were HEK293 cells ectopically expressing human TLR2 (293.hTLR2, see Example 1, above). Phage bound to 293.hTLR2 cells were harvested, titred, and amplified prior to initiation of the each cycle of panning. In this way, it was possible to determine the % of input phage in each cycle that was ultimately harvested from the TLR2^hi cells.
After 4 rounds of biopanning, individual phage clones from the enriched pool were isolated via plaque formation in E. coli. […] phage clones were randomly picked for sequencing. Of the 109 individual clones examined the motif DPDSG was predominant (see Tables 6 and 7). […]

Sequence of human TLR2 (293.hTLR2 cells) (O60603 21-784): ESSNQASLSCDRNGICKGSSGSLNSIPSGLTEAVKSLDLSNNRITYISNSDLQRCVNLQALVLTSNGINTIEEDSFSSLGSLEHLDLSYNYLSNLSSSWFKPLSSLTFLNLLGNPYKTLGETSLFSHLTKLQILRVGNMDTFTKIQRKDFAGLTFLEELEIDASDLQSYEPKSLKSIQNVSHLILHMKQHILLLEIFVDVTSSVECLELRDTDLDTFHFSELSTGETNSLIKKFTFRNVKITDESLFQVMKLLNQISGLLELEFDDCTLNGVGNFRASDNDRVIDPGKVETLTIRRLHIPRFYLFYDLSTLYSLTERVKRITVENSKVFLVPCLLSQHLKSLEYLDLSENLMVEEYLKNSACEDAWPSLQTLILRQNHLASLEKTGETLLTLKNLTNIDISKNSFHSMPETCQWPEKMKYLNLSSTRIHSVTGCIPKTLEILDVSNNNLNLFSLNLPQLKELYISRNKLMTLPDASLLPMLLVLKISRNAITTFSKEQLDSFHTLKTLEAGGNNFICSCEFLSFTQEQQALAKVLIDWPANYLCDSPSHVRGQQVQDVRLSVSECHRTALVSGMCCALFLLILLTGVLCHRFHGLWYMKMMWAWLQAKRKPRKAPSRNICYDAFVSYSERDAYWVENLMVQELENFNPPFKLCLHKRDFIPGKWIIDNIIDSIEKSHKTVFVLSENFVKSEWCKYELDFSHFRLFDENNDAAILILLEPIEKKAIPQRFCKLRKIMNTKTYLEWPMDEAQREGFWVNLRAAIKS

Substance	% Abundance
ADTHQ [peptide TLR2 ligand from phage display]	0.9%
AWAGT [peptide TLR2 ligand from phage display]	0.9%
CVWLQ [peptide TLR2 ligand from phage display]	0.9%
GPLLH [peptide TLR2 ligand from phage display]	0.9%
HLLPG [peptide TLR2 ligand from phage display]	0.9%
IGRFR [peptide TLR2 ligand from phage display]	2.7%
IHVVP [peptide TLR2 ligand from phage display]	0.9%
IMWFP [peptide TLR2 ligand from phage display]	0.9%
IYKLA [peptide TLR2 ligand from phage display]	0.9%
KGWF [peptide TLR2 ligand from phage display]	0.9%
KYMPH [peptide TLR2 ligand from phage display]	0.9%
LRQGR [peptide TLR2 ligand from phage display]	0.9%
MFGVP [peptide TLR2 ligand from phage display]	0.9%
MGTLP [peptide TLR2 ligand from phage display]	1.8%
NYRRW [peptide TLR2 ligand from phage display]	0.9%
RVVAP [peptide TLR2 ligand from phage display]	0.9%
SHIAL [peptide TLR2 ligand from phage display]	0.9%
THKPK [peptide TLR2 ligand from phage display]	0.9%
VGKND [peptide TLR2 ligand from phage display]	0.9%

same assay, conditions: percentage of all clones sequenced (n = 109) having given peptide sequence; after 4 rounds of biopanning, TLRlo parental HEK293, TLRhi 293.hTLR2; peptides with no homology to known proteins

Substance	% Abundance
ACGVY [peptide TLR2 ligand from phage display]	0.92%
AGCFS [peptide TLR2 ligand from phage display]	0.92%
AVRLS [peptide TLR2 ligand from phage display]	0.92%
CGPKL [peptide TLR2 ligand from phage display]	0.92%
EVCAP [peptide TLR2 ligand from phage display]	0.92%
FCGLG [peptide TLR2 ligand from phage display]	0.92%
GGKLS [peptide TLR2 ligand from phage display]	0.92%
IMRHP [peptide TLR2 ligand from phage display]	0.92%
KCQSF [peptide TLR2 ligand from phage display]	0.92%
MISS [peptide TLR2 ligand from phage display]	0.92%
MRRIL [peptide TLR2 ligand from phage display]	0.92%
NPPTT [peptide TLR2 ligand from phage display]	0.92%
NRFGL [peptide TLR2 ligand from phage display]	0.92%
NRTVF [peptide TLR2 ligand from phage display]	0.92%
PESGV [peptide TLR2 ligand from phage display]	0.92%
RGGF [peptide TLR2 ligand from phage display]	0.92%
RGGSK [peptide TLR2 ligand from phage display]	3.67%
SGGLF [peptide TLR2 ligand from phage display]	0.92%
SRHGR [peptide TLR2 ligand from phage display]	0.92%
VSEGV [peptide TLR2 ligand from phage display]	3.67%

molecular target: human TLR2 and human CD14 (293.hTLR2.hCD14 cells) (Homo sapiens, UniProt O60603); assay: Biopanning of pooled 10, 15 and 20 amino acid random peptide phage display libraries, sequencing of enriched clones; type: binding; conditions: percentage of all clones sequenced having given peptide sequence; 96 clones picked after 4 rounds of biopanning, TLRlo parental HEK293, TLRhi 293.hTLR2.hCD14
Procedure: as §1
Libraries of phage displaying random peptides 10, 15 and 20 amino acids in length were constructed essentially as described for the pentameric random peptide library, except that the phosphorylated oligonucleotides used were 30, 45, and 60 nucleotides in length, respectively.
as §2
We also constructed 10, 15, and 20 amino acid random peptide phage display libraries in T7SELECT phage. These phage display libraries were pooled in equal proportion and then screened by biopanning as described in Example 3. […] Of the 96 clones analyzed three peptide sequences were particularly abundant (see Table 8). […]

Sequence of human TLR2 and human CD14 (293.hTLR2.hCD14 cells) (O60603 21-784): as above

Substance	% Abundance
GRRGLCRGCRTRGRIKQLQSAHK [peptide TLR2 ligand from phage display]	16.1%
KGGVGPVRRSSRLRRTTQPG [peptide TLR2 ligand from phage display]	33.3%
RWGYHLRDRKYKGVRSHKGVPR [peptide TLR2 ligand from phage display]	19.4%

molecular target: TLR2 (Homo sapiens, UniProt O60603); assay: T7 phage biopanning, 4 rounds (negative on parental HEK293, positive on 293.hTLR2 cells); share of 109 sequenced clones; conditions: not given
Sequence (O60603 21-784 limits assumed): as the sequence (O60603 21-784) above

Substance	% ABUNDANCE
ACGVY (peptide)	0.92%
ADTHQ (peptide)	0.9%
AGCFS (peptide)	0.92%
AVRLS (peptide)	0.92%
AWAGT (peptide)	0.9%
CGPKL (peptide)	0.92%
CVWLQ (peptide)	0.9%
EVCAP (peptide)	0.92%
FCGLG (peptide)	0.92%
GGKLS (peptide)	0.92%
GPLLH (peptide)	0.9%
HLLPG (peptide)	0.9%
IGRFR (peptide)	2.7%
IHVVP (peptide)	0.9%
IMRHP (peptide)	0.92%
IMWFP (peptide)	0.9%
IYKLA (peptide)	0.9%
KCQSF (peptide)	0.92%
KGWF (peptide)	0.9%
KYMPH (peptide)	0.9%

Substance	% ABUNDANCE
LRQGR (peptide)	0.9%
MFGVP (peptide)	0.9%
MGTLP (peptide)	1.8%
MISS (peptide)	0.92%
MRRIL (peptide)	0.92%
NPPTT (peptide)	0.92%
NRFGL (peptide)	0.92%
NRTVF (peptide)	0.92%
NYRRW (peptide)	0.9%
PESGV (peptide)	0.92%
RGGF (peptide)	0.92%
RGGSK (peptide)	3.67%
RVVAP (peptide)	0.9%
SGGLF (peptide)	0.92%
SHIAL (peptide)	0.9%
SRHGR (peptide)	0.92%
THKPK (peptide)	0.9%
VGKND (peptide)	0.9%
VSEGV (peptide)	3.67%
